From patent US20230167458A1, “FORSKOLIN-INDUCIBLE PROMOTERS AND HYPOXIA-INDUCIBLE PROMOTERS” (ASKLEPIOS BIOPHARMACEUTICAL, INC., priority 2020, published 2023)
“Also recorded” adds a separate entry of the source.

Columns and labels:
[1] = system: Huh7 human liver cell line; test: Luciferase expression from forskolin-inducible promoters, transient transfection of PM-RQ plasmid in Huh7; type: cell-based; parameters: luciferase activity following induction / fold induction of promoter (luciferase activity): dose or concentration left out as unconfirmed
Method: (§1) Luciferase readouts were normalised to β-galactosidase to produce normalised relative luminometer units (RLUs). β-galactosidase containing pcDNA6 plasmid was used as internal control for transfection efficiency (Thermofisher, V22020). β-galactosidase activity was measured as per manufacturer's instructions (Mammalian βGalactosidase Assay Kit, 75707/75710, Thermo Scientific) using 25 μl of lysate. 25 μl of lysate was transferred into a microplate well and mixed with 25 μl of β-galactosidase Assay Reagent, equilibrated to room temperature. The mixture was incubated at 37° C. for 30 min and absorbance measured at 405 nm.
(§2) The forskolin-inducible promoters were initially used to drive expression of luciferase in the Huh7 human liver cell line and the C2C12 […]. The promoter constructs were used to drive expression of luciferase in the PM-RQ plasmid. The tested promoters were synthesised directly upstream of the ATG of PM-RQ plasmid.
• Huh7 cells which are a human liver cell line • DPBS: without CaCl2, without MgCl2 (Gibco, 14190-094) • DMEM (Sigma, D6546) • FBS (Sigma, F9665) • Pen-Strep (Sigma, P4333) • Promega Fugene-HD (E2311) • Forskolin (Sigma, F6886) • NKH477 (Sigma, N3290) • LARII (Dual Luciferase Reporter 1000 assay system, Promega, E1980) • 48 well plates flat bottom (353230, Corning) • Trypsin-EDTA (25200-056, Gibco) • T25 & T75 flask (353108, 353136, Corning) • 15 ml Falcon tubes (430791, Corning) • Stripettes 5 ml, 10 ml and 25 ml (4101,4051,4251, Corning)
Cells were seeded onto a 48 well plate at a density of 25,000 cells/300 μl
• On the day of transfection, DNA to be transfected was diluted to a 100 ng/μl stock solution. DNA to be transfected was the RTV-017, RTV-019 or CMV-IE promoter driving luciferase in the PM-RQ plasmid. • Per 48 well transfection, 45 ng of DNA was mixed with 4.1 μl of Optimem medium. • 0.5 μl of […] was mixed with 4 μl of Optimem medium. • These 2 solutions were mixed and incubated at room temperature for 15 minutes. • The final solution was then added to the well drop wise. • 3 hrs after transfection the inducer was added to the appropriate wells at the indicated concentration. Inducer was forskolin at […].
• 24 hrs after induction, the luciferase activity was measured as described below.
• Luciferase activity was measured using LARII (Dual Luciferase Reporter 1000 assay system, Promega, E1980) • 24 hours after induction, the media was removed from the cells • The cells were washed once in 300 μl of DPBS. • Cells were lysed using 100 μl of passive lysis buffer and incubated with rocking for 15 minutes. • The cell debris was pelleted by centrifugation of the plate at max speed in a benchtop centrifuge for 1 min • For luciferase, 10 μl sample was transferred into white 96-well plate and luminescence measured by injection of 50 μl of LARII substrate
RTV-017 and RTV-019 were transiently transfected into the human liver cell line Huh7 (FIG. 2). RTV-019 was transiently transfected into the […] C2C12 (FIG. 3). The activity of the promoters was assessed using luciferase activity. The luciferase activity was measured with and without the presence of […] forskolin.

[2] = system: C2C12 human muscle cell line; test: Luciferase expression from forskolin-inducible promoter, transient transfection in differentiated C2C12; type: cell-based
Method: as §1, §2
• Media was prewarmed at 37° C. before use • C2C12 Complete Medium was used to grow the cells before differentiation. […]
C2C12 cells were maintained at 37° C., 5% CO2. […] Detachment was monitored under the microscope. • 4 ml C2C12 Complete Medium was added to inactivate Trypsin and the cells were transferred into a 15 ml tube. • The cells were centrifuged for 3 mins at 250 RCF at room temperature. • The supernatant was aspirated • The cells were resuspended by gentle pipetting up and down in 6 ml C2C12 Complete Medium • The cells were counted in a haemocytometer by using trypan blue (Thermofisher, 15250061) to determine the how many of the cells were alive. Trypan blue stains dead cells in blue and this allows for them not to be counted. The cells were resuspended into trypan blue in ration of 1:10, e.g. 10 μl cells and 90 μl trypan blue and counted using a haemocytometer. • The cells were seeded in complete medium at a density dependent on the passage number. […] The abovementioned densities are experimentally determined for efficient differentiation and transfection. […]

B1: RTV-019: synthetic forskolin-inducible promoter, SEQ ID NO: 44; 3× ATF6, 4× AP1(1) and 3× HRE1 TFBS and CMV-MP (nucleic acid)
DNA: TGACGTGCTGATGATGCGTAGCTAGTAGTTGACGTGCTGATGATGCGTAGCTAGTAGTTGACGTGCTGATGATGCGTAGCTAGTAGTTGAGTCAGATGATGCGTAGCTAGTAGTTGAGTCAGATGATGCGTAGCTAGTAGTTGAGTCAGATGATGCGTAGCTAGTAGTTGAGTCAGATGATGCGTAGCTAGTAGTCTGCACGTAGATGATGCGTAGCTAGTAGTCTGCACGTAGATGATGCGTAGCTAGTAGTCTGCACGTAGATGATGCGTAGCTAGTAGTGCAGTTAGCGTAGCTGAGGTACCGTCGACGATATCGGATCCAGGTCTATATAAGCAGAGCTCGTTTAGTGAACCGTCAGATCGCCTAGATACGCCATCCACGCTGTTTTGACCTCCATAGAAGATCGCCACC
modifications: Synp-RTV-019
notes: 3× ATF6, 4× AP1(1) and 3× HRE1 TFBS and CMV-MP
luciferase activity without induction (background) ([1]; Huh7, before addition of forskolin): low background activity
luciferase activity following induction ([1]; Huh7, forskolin): high activity; also recorded: much higher activity
fold induction of promoter (luciferase activity) ([1]; Huh7 liver cells, PM-RQ plasmid, forskolin, 24 hrs after induction): 24 fold
luciferase activity following induction ([2]; C2C12, 20 µM forskolin): high activity; also recorded: much higher activity
luciferase activity without induction (background) ([2]; C2C12, before addition of forskolin): low background activity
fold activation of promoter (luciferase activity) ([2]; C2C12 muscle cells, 20 µM forskolin, 24 hrs): 6 fold
